Results taken from the supplement of paper PMC9732359.
± gives the uncertainty stated by the source.

Assay: protein stability index of a GFP-peptide fusion (yeast GPS) (PSI 1-4); higher = more stable; sorted into four equal gates, so the index is relative within each strain
In short: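 Each library plasmid carries Cherry plus GFP with a tiled 17-residue yeast protein peptide fused downstream, and the pooled library was carried in yeast. Mid-log cultures in leucine-free medium were sorted into four equal gates by GFP/Cherry ratio. Reads from Illumina sequencing of PCR-amplified plasmids from each gate were assigned to strains by barcodes. Per peptide, the protein stability index was computed as the summed products of gate read frequency and gate number.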

Sequence | protein stability index (doa10∆) | protein stability index (pdr5∆) | protein stability index (san1∆) | protein stability index (ubr1∆)
ADINLEESIRESLQKRE [SIR3] | 3.4 ± 0.085 | 3.28 ± 0.088 | 3.09 ± 0.12 | 3.36 ± 0.062
IFCIDLEVFHHFFKWIE [SRB8] | 1.25 ± 0.092 | 1.64 ± 0.16 | 1.38 ± 0.14 | 
DAAAEEEKEEEAAEESD [RPP1B] | 3.19 ± 0.13 | 3.25 ± 0.13 | 3.04 ± 0.1 | 3.29 ± 0.073
YPRLQDPSRELNVIIDQ [YCS4] | 3.2 ± 0.076 | 3.09 ± 0.08 | 3.34 ± 0.052 | 3.07 ± 0.082
PQNTTATTGGLFGSKPQ [YGR119C/NUP57] | 3.33 ± 0.1 | 3.36 ± 0.1 | 3.32 ± 0.13 | 3.53 ± 0.17
EISAAHNKLNITSDALE [SMC3] | 2.64 ± 0.17 |  | 2.58 ± 0.23 | 
AYFLIIVPVISTIENVL [COB] | 1.52 ± 0.057 | 1.75 ± 0.045 | 1.92 ± 0.059 | 2.12 ± 0.07
NRTVLLKIFKIFCIDLE [SRB8] | 1.94 ± 0.094 | 2.15 ± 0.089 | 1.89 ± 0.13 | 2.3 ± 0.071
PVRPVRVRHEDVETVKR [RPC53] | 2.9 ± 0.077 | 2.97 ± 0.048 | 2.88 ± 0.055 | 3.04 ± 0.037
NLQPISTPENVPRLFDL [SMC4] | 2.89 ± 0.11 | 2.93 ± 0.084 | 2.6 ± 0.12 | 2.48 ± 0.064
NLLHSYMEKGTQLDDLQ [YML103C/NUP188] | 2.63 ± 0.056 | 2.49 ± 0.053 | 2.35 ± 0.052 | 2.32 ± 0.034
KDLVKNNVSFNAKDIQI [FAS1] | 2.46 ± 0.041 | 2.62 ± 0.061 | 2.69 ± 0.07 | 2.71 ± 0.043
RLIDSMKQYSYLMDSKN [RRI1] | 2.62 ± 0.21 | 2.41 ± 0.14 |  | 2.87 ± 0.18
NYIENMNEMCKKINAKE [RPN8] | 2.84 ± 0.045 | 3.07 ± 0.059 | 3.12 ± 0.043 | 3 ± 0.039
DRKNRAPPQRPRFNRDN [RPS26B] | 1.87 ± 0.2 | 1.4 ± 0.15 |  | 3.04 ± 0.16
FKKDLVIVLSNISHLLE [SWI1] | 1.86 ± 0.048 | 1.63 ± 0.067 | 1.75 ± 0.078 | 1.93 ± 0.061
QDISSSTRVEFEKLYSD [FAS2] |  | 3.05 ± 0.24 | 3.27 ± 0.14 | 
EAEMAYVKAVSDKAQLN [SMC4] | 2.62 ± 0.062 | 2.33 ± 0.052 | 2.2 ± 0.072 | 2.26 ± 0.05
ELAGDEELEAEQIDVFS [PRP8] | 3.43 ± 0.079 | 3.27 ± 0.13 | 3.08 ± 0.12 | 2.82 ± 0.13
NLRLLNSIDSTSRIELE [ECM29] | 2.91 ± 0.094 | 3.08 ± 0.077 | 2.92 ± 0.064 | 2.98 ± 0.057
DLQRLKPLGLDRYGNRY [ITC1] |  |  |  | 3.05 ± 0.13
TVKLTEIVWTSSLIKAG [RPO31] | 1.48 ± 0.058 | 1.69 ± 0.067 | 1.24 ± 0.14 | 1.24 ± 0.063
NATHDEDEFIVQHDQIL [SWP82] | 2.93 ± 0.036 | 3.13 ± 0.032 | 2.96 ± 0.032 | 3.044 ± 0.023
LRLFNAPDSEYLCFILS [SNF2] | 2.28 ± 0.044 | 2.17 ± 0.044 | 2.15 ± 0.042 | 1.94 ± 0.031
TGETYQRFVGHKSDVMS [ASC1] | 2.73 ± 0.14 | 3.09 ± 0.069 | 2.6 ± 0.096 | 2.94 ± 0.093
KNTLLERLKQLTPNEIK [SWP82] | 2.8 ± 0.063 | 2.81 ± 0.065 | 2.71 ± 0.046 | 2.68 ± 0.054
FVDLNEKELQNEIKQLG [SRB4] | 2.31 ± 0.072 | 2.41 ± 0.17 | 2.13 ± 0.2 | 2.78 ± 0.14

Sequence | protein stability index (doa10∆) | protein stability index (pdr5∆) | protein stability index (san1∆) | protein stability index (ubr1∆)
TIIFIDELDAIGTKRFD [RPT5] | 2.75 ± 0.069 | 2.33 ± 0.045 | 2.5 ± 0.075 | 2.42 ± 0.059
LKNYVLNELHPTLPTNH [PRP8] | 2.73 ± 0.047 | 3.04 ± 0.054 | 2.53 ± 0.064 | 2.67 ± 0.031
SSKYAYMMNSQSPRGKI [YLR018C/POM34] | 2.83 ± 0.062 | 2.69 ± 0.065 | 2.75 ± 0.044 | 2.78 ± 0.038
YRFFKKISEDPVKALNE [SNF12] | 3.5 ± 0.19 | 3.68 ± 0.2 | 2.8 ± 0.23 | 3.52 ± 0.086
PDYYMIIKYPVAFDNIN [SNF2] | 2.78 ± 0.14 | 2.08 ± 0.12 | 1.97 ± 0.12 | 2.44 ± 0.15
ESEQELSLHTGFIENCN [MTR3] | 2.62 ± 0.067 | 2.99 ± 0.067 | 2.88 ± 0.063 | 2.93 ± 0.053
QKQWDDIAFVLNNLPYK [YCS4] | 2.48 ± 0.077 | 3.09 ± 0.082 | 2.97 ± 0.11 | 3.18 ± 0.086
ENEDGNIEERKEKIQHE [BRR2] | 3.23 ± 0.14 | 3.47 ± 0.1 | 3.57 ± 0.092 | 3.3 ± 0.15
QAIPKFQMNCYAKEDAF [RPN2] | 1.84 ± 0.061 | 2.23 ± 0.044 | 2.17 ± 0.067 | 2.57 ± 0.036
GEIVSINQINEAHPTKV [RPL20A] | 3.17 ± 0.25 | 2.98 ± 0.17 | 3.06 ± 0.06 | 2.77 ± 0.092
PEDLNSLYIYYLIKLLG [SIR2] | 2.07 ± 0.053 | 2.15 ± 0.05 | 2.18 ± 0.064 | 1.95 ± 0.056
NGGVGVDVELITSINVE [FAS2] | 2.93 ± 0.051 | 3.18 ± 0.056 | 3.11 ± 0.05 | 3.13 ± 0.05
FTNPSIVKVFHGAFMDI [RRP6] | 1.16 ± 0.084 | 1.57 ± 0.062 | 1.63 ± 0.11 | 1.38 ± 0.049
GTNNARLAQLLRQLASY [RPN1] | 3.17 ± 0.092 | 3.09 ± 0.083 | 3.21 ± 0.097 | 3.14 ± 0.096
FTRIFLPIYDSLMSSQN [SIR3] | 2.24 ± 0.045 | 2.05 ± 0.038 | 1.99 ± 0.074 | 2.21 ± 0.037
KAPTKLDDPEAVSKDPL [DIS3] | 3.35 ± 0.089 | 3.45 ± 0.12 | 3.17 ± 0.058 | 3.26 ± 0.068
RKVRTKKWKKYWQYKAG [SWP82] | 2.47 ± 0.089 | 2.17 ± 0.12 | 2.83 ± 0.12 | 2.04 ± 0.058
ALVFAALEHLKNLSLLA [SRP68] | 2.79 ± 0.12 | 2.75 ± 0.14 | 3.07 ± 0.065 | 2.92 ± 0.096
EYYRIQKQLPQKTRVKL [ESC2] | 2.79 ± 0.055 | 2.77 ± 0.05 | 2.86 ± 0.05 | 2.82 ± 0.039
QFTRFFLLVPSKQVQVS [ECM29] | 1.27 ± 0.075 | 1.18 ± 0.061 | 1.19 ± 0.11 | 1.21 ± 0.072
WGGFPLDISVFLLEKAG [TAF14] | 3.2 ± 0.11 | 3.38 ± 0.067 | 3.26 ± 0.06 | 3.15 ± 0.075
KMWFDVQLRYGDYDSHD [PRP8] | 1.78 ± 0.12 | 2.06 ± 0.15 |  | 3.06 ± 0.2
VKVHMDSETSDPNEVEI [DIS3] | 3.29 ± 0.089 | 3.5 ± 0.086 | 3.5 ± 0.077 | 3.52 ± 0.088
NSESDSKSDSDSEERDP [ITC1] | 3.14 ± 0.14 | 2.99 ± 0.2 | 3.01 ± 0.12 | 3.22 ± 0.12
NDLEVGVATKDKFFTLS [SCL1] | 3.18 ± 0.084 | 3.33 ± 0.067 | 3.08 ± 0.072 | 2.89 ± 0.12
TVSPTQDKDAIRKQPDD [SIR2] | 2.99 ± 0.076 | 3.11 ± 0.087 | 2.99 ± 0.067 | 2.9 ± 0.096
